Here are results for 1 molecule from publication PMC10954369.

The target of this data set is T1, GST-JunB (mouse, UniProt P09450 1-344).
T1 sequence: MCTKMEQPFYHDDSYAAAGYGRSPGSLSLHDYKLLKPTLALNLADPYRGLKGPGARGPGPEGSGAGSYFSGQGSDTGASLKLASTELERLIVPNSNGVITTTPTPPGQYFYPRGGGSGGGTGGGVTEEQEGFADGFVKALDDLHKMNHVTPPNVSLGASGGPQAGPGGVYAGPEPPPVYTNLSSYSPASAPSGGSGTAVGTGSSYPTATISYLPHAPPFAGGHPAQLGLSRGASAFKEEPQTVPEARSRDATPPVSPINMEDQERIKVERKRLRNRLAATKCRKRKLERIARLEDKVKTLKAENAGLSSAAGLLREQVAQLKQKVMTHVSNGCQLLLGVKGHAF
Briefly: EMSA. A general note: A gel shift assay detects complexes by their altered migration in electrophoresis.

B1: Erra promoter TRE probe WT (-1305/-1315) (dsDNA)
DNA 1: AGTGAGTGACTCAGAGGACTT
DNA 2: AAGTCCTCTGAGTCACTCACT
For the molecule B1, the binding result is on record as “binds”.
